Results from the supplement of paper PMC11780869.

System: Bacillus subtilis
Assay: cleaved RNA product abundance (RNA/gDNA barcode ratio) relative to median wild-type variant (ratio to wild type); higher = more accumulation of the downstream cleavage product
Details: experiment (reporter, strain, medium): exp 8a: truncated aprE reporter, strain BJT201 with 2% xylose (RNase J1 expressed); cleavage site: glnRA (positions -5 to +31 mutated)
Outline: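 B. subtilis strains with chromosomally integrated reporter mRNAs (truncated aprE or tetM) holding barcoded, mutagenized RNase Y cleavage-site windows grew in LB at 37°C from OD600 0.0003 to 0.3. Cleaved product abundance is each construct's RNA:gDNA barcode ratio, scaled to the median construct with the unmutated site. It came from sequencing barcodes of gel-selected, reverse-transcribed cleaved RNA and of genomic DNA.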

Sequence	cleaved RNA product abundance
CGACATGTCCCGCTTCTTTCATTAATCCGTTACCAACTGTTTTGCTATATACATTAACCTTTTAAGAGGAGGAAT	0.238
CGACATGTCCCGCTTCTTTCATTAATCCGTTACCAACTGTTTTGCTATATACATTTAACTTTTAAGAGGAGGAAT	0.282
CGACATGTCCCGCTTCTTTCATTAATCCGTTACCAACTGTTTTGCTATATACATTTACATTTTAAGAGGAGGAAT	0.209
CGACATGTCCCGCTTCTTTCATTAATCCGTTACCAACTGTTTTGCTATATACATTTACCGTTTAAGAGGAGGAAT	0.173
CGACATGTCCCGCTTCTTTCATTAATCCGTTACCAACTGTTTTGCTATATACATTTACCTTTTAAGAGGAGGAAT	0.255
CGACATGTCCCGCTTCTTTCATTAATCCGTTACCAACTGTTTTGCTATATACATTTACTTTTTAAGAGGAGGAAT	0.208
CGACATGTCCCGCTTCTTTCATTAATCCGTTACCAACTGTTTTGCTATATACATTTATCTTTTAAGAGGAGGAAT	0.306
CGACATGTCCCGCTTCTTTCATTAATCCGTTACCAACTGTTTTGCTATATACATTTCCCTTTTAAGAGGAGGAAT	0.127
CGACATGTCCCGCTTCTTTCATTAATCCGTTACCAACTGTTTTGCTATATACATTTTCCTTTTAAGAGGAGGAAT	0.231
CGACATGTCCCGCTTCTTTCATTAATCCGTTACCAACTGTTTTGCTATATACCTTTACCTTTTAAGAGGAGGAAT	0.153
CGACATGTCCCGCTTCTTTCATTAATCCGTTACCAACTGTTTTGCTATATACGTTTACCTTTTAAGAGGAGGAAT	0.253
CGACATGTCCCGCTTCTTTCATTAATCCGTTACCAACTGTTTTGCTATATACTTTTACCTTTTAAGAGGAGGAAT	0.145
CGACATGTCCCGCTTCTTTCATTAATCCGTTACCAACTGTTTTGCTATATAGATTTACCTTTTAAGAGGAGGAAT	0.226
CGACATGTCCCGCTTCTTTCATTAATCCGTTACCAACTGTTTTGCTATATATATTTACCTTTTAAGAGGAGGAAT	0.212
CGACATGTCCCGCTTCTTTCATTAATCCGTTACCAACTGTTTTGCTATATCCATTTACCTTTTAAGAGGAGGAAT	0.206
CGACATGTCCCGCTTCTTTCATTAATCCGTTACCAACTGTTTTGCTATTTACATTTACCTTTTAAGAGGAGGAAT	0.118
CGACATGTCCCGCTTCTTTCATTAATCCGTTACCAACTGTTTTGTTATATACATTTACCTTTTAAGAGGAGGAAT	0.231
CGACATGTCCCGCTTCTTTCATTAATCCGTTACCAACTGTTTTTCTATATACATTTACCTTTTAAGAGGAGGAAT	0.234
CGACATGTCCCGCTTCTTTCATTAATCCGTTACCAACTTTTTTGCTATATACATTTACCTTTTAAGAGGAGGAAT	0.225
CGACATGTCCCGCTTCTTTCATTAATCCGTTACCAAGTGTTTTGCTATATACATTTACCTTTTAAGAGGAGGAAT	0.272
CGACATGTCCCGCTTCTTTCATTAATCCGTTACCAATTGTTTTGCTATATACATTTACCTTTTAAGAGGAGGAAT	0.16
CGACATGTCCCGCTTCTTTCATTAATCCGTTACCATCTGTTTTGCTATATACATTTACCTTTTAAGAGGAGGAAT	0.163
CGACATGTCCCGCTTCTTTCATTAATCCGTTACCGACTGTTTTGCTATATACATTTACCTTTTAAGAGGAGGAAT	0.269
CGACATGTCCCGCTTCTTTCATTAATCCGTTACCTACTGTTTTGCTATATACATTTACCTTTTAAGAGGAGGAAT	0.443
CGACATGTCCCGCTTCTTTCATTAATCCGTTACGAACTGTTTTGCTATATACATTTACCTTTTAAGAGGAGGAAT	0.291
CGACATGTCCCGCTTCTTTCATTAATCCGTTACTAACTGTTTTGCTATATACATTTACCTTTTAAGAGGAGGAAT	0.155
CGACATGTCCCGCTTCTTTCATTAATCCGTTAGAAAATGTTTTGCTATAAACATTTACCTTTTAAGAGGAGGAAT	0.166
